± gives the uncertainty stated by the source.
Test: amyloid nucleation score (Sup35N fusion, yeast selection) (log enrichment); library NNK3; higher = more nucleation; inactive = no reads after selection
In short: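 Nucleation score is defined as the DiMSum log enrichment of output over input reads, with centring on the mode score of non-aggregating sequences. A minimum of 100 input reads was required for each sequence. Reads came from Illumina sequencing of plasmid inserts from psi-negative yeast expressing Sup35N fused to peptides of 20 random codons, induced with 100 μM copper sulfate for 24 hours and grown 7 days at 30°C on medium lacking adenine and uracil.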

Substance | amyloid nucleation score
RPWPYSYTNWDLCWLMAMPN | inactive
RQADMYRYLFWGRWTVWCSW | inactive
RQFVIFYYSLIGHVNSWLRP | inactive
RQGAKVRTGGHKKQSGSSCR | inactive
RQLSSQREWECATPMRHRLA | 0.145 ± 0.51
RQRMSGQNVTNNHACLFKAR | inactive
RRDPDPTLIPG | inactive
RREYVVGNSFFYNY | 1.19 ± 0.093
RRGFFYIH | inactive
RRGSNTGCPNVQNFVITLWQ | inactive
RRPSQRLLGHIKVLWRNTTI | inactive
RRSVAFLPYMSW | inactive
RRTRYDS | inactive
RRVSMPLSGDKSRSVEGVRR | inactive
RRVSSSLIEAYYREQSRFQI | inactive
RRYGYNLVTL | inactive
RSCMQLVCTCPFTGTTSRMI | 2.63 ± 0.055
RSCVLMVASVSNRNRPGDVS | inactive
RSDNESGNV | inactive
RSFSECWCWISKLVGYLGVT | inactive
RSFVVESPDKYHPIVMFGTD | inactive
RSGHRGHYKFEL | inactive
RSIGIAFLGIVGVYNMLASQ | -0.195 ± 0.59

Substance | amyloid nucleation score
RSKWRCRTLVDWRLQV | inactive
RSPYNFCKALRMGWVTNKIS | inactive
RSRKVNWCSLFVVVSHVGWK | inactive
RSRNAAVDFCLPSSPWSSSV | inactive
RSRVRKRYWLTACP | inactive
RSSDVRQYTLMCNWSKHVVL | 0.089 ± 0.54
RSSDYNRLHRSFSCNG | inactive
RSSWK | inactive
RSVAVITRCSNNGRSHKC | inactive
RSVGYRTAVMRHLYIMMN | inactive
RSWESV | inactive
RSWSLCIGFMFFVRNS | inactive
RTCAYRMESVHVVRVSAGIM | inactive
RTINWASCQSWLKVTSPKGL | inactive
RTKYSQYHTGVSFDGSMHYS | inactive
RTLTSDTHIRFLDQLSRYIW | inactive
RTSRT | inactive
RTSVISISSLILALRGLYSR | inactive
RTVELEIHGLHV | inactive
RTYHSLVSSEERRWKLKHCY | inactive
RVATGVVCMM | inactive
RVCYEFKYKIKYVLD | -0.457 ± 0.5
RVFGLMYSQREMCTWSVRNR | 0.446 ± 0.13

Substance | amyloid nucleation score
RVIGKCPHSRNCTPA | inactive
RVIYG | inactive
RVMRMLSIVWFRWNEIVIFL | inactive
RVMWYGGCCWSVIYCHRLGV | inactive
RVNILFNFFCHTVW | 1.2 ± 0.13
RVNRCLLMMVDALYQNCTLN | inactive
RVPCNETELCMFYRSGLLLL | inactive
RVPIYVHKI | inactive
RVRNSCSVIGMWMLVYSRMI | inactive
RVSSHISSCGYDFCLWVEA | inactive
RVTCLFFNPRRTTNYSSSVG | 1.1 ± 0.11
RVTTMLSFVR | inactive
RVVNRFRNCWK | 0.717 ± 0.19
RVVPL | inactive
RVVYLHNSVRLSLDVNPIAV | inactive
RWCDA | -0.041 ± 0.31
RWSGHTWTCVQDRMVCICNS | inactive
RWSHDMSCE | inactive
RYADMSTMNAS | inactive
RYEVPGTSFLNM | inactive
RYFKIPF | inactive
RYFPTV | inactive
RYFVRYVRSVLTSG | inactive

Substance | amyloid nucleation score
RYGTLGDLV | inactive
RYGTVDCIYCFMDLGVRDTG | 2.46 ± 0.081
RYLFRFYSRDVVSMMQ | inactive
RYLILMDCFR | 0.291 ± 0.23
RYLNVVPLLPCYMIWFPRVS | inactive
RYLTNLWNYTFLINRAMLTY | inactive
RYMFVVRTMPV | inactive
RYNNYTSESGPCN | inactive
RYNRDGMTYMSISFPRGPYL | 1.27 ± 0.12
RYPTDSVWGIGSGLVN | inactive
RYRGFNVVVLIGKDRVGSAM | inactive
RYRGMGQNMT | inactive
RYRSVNVYWIAVLRTWSAVI | inactive
RYSRWLGT | inactive
RYTNAYRQASLRV | inactive
RYVIIMS | inactive
RYVIV | inactive
RYYDLVSLVQARDEVCTIHD | inactive
SAECSVPEYVHRHKVIWHGL | inactive
SAGISYFCDILKSTYAVFAV | inactive
SAGLKS | inactive
SAHEFIVDCRYESIRMFVII | inactive
SAKSRFSRIVSRFYHMVICA | inactive

Substance | amyloid nucleation score
SAQFRFKSSV | 1.35 ± 0.089
SAREKIVLRVS | -0.684 ± 1.1
SARSGAAISTSSNKVTPVYT | inactive
SASGGFVLFLWLVCEGTFAG | 0.069 ± 0.38
SATFRSSVTLSRHPVNNLTP | 1.35 ± 0.082
SAVLPLALVGHDTPNRAQLN | inactive
SAWQPWMKDRSS | inactive
SAYWCIPIPNITIWFNFFLL | 1.47 ± 0.11
SCFCC | 3.09 ± 0.061
SCFKDDCVGLLYYQSWSNDS | 0.501 ± 0.33
SCIYMSC | 1.73 ± 0.073
SCIYTMAIRNNKVRCYFRAG | inactive
SCLHHFMEDSEPMNMGRVVK | inactive
SCLHSSSFCKR | inactive
SCLHYVTVY | inactive
SCRCR | inactive
SCSFRVYYFRLYFMLRSGSV | -0.743 ± 0.82
SCSWVREWYRRLHRWGCGQW | 0.656 ± 0.28
SCTELFTPKGR | inactive
SCTLYAHALCPEQISPQFLH | inactive
SCVLTFGFLILLRVPSYSRI | inactive
SCVVFGSQTLRVVFFDRVSS | 0.184 ± 0.32
SCYNYCRCVCPNVEASHTSL | -0.664 ± 1.1

Substance | amyloid nucleation score
SCYTMAFPVLWVHAQYCMNK | inactive
SDCYCNSQAVAWLFDRVFVF | inactive
SDEGRAIPSATPFWEYCLMW | inactive
SDGSNKVLESRCDSLHNVIV | inactive
SDIGVCSLKICSTIILVANM | inactive
SDIHMMRCGVWLKNLMFMRK | inactive
SDLASASFCGH | 0.676 ± 0.2
SDLFVSVFM | inactive
SDLYDVVEPVAMVTCDSKEK | inactive
SDQFLIMEDSCSTPGRRSFK | 0.408 ± 0.29
SDSDMNKNMHMDSTHGRAMD | inactive
SDWRRISVLIMFTEARSFLV | inactive
SDYLFSQRGFVGSASCVLVM | inactive
SDYTYFYM | inactive
SEAIFMVVGVRYEMELRWM | -0.55 ± 1.4
SEASYIIIFSGFSGFMPKLG | inactive
SEDLRETWGSSA | -0.377 ± 0.98
SEISWQVLCKNEDEYCHFWE | inactive
SELLPNYTKGVLTGDIYSRY | inactive
SELTEVTSITDWF | inactive
SENGECKATVLCMLSSPVVC | inactive
SENMTGFLNRTSIISPWTYC | inactive
SESMDGNFQKCLSAVCALIE | inactive

Substance | amyloid nucleation score
SFFDYAHRASSVFLGIFPEP | inactive
SFFIALVNIFRCLN | 2.56 ± 0.059
SFFKNGGELVMSCVSVSPDI | inactive
SFFTYRPQMMRCLSAIYTRM | inactive
SFGLWTGFGVMYVRIVDVTH | inactive
SFGSFMSHDEFSNVHSVGFP | inactive
SFHTDTPLMRHYIMRFYNDY | inactive
SFKAWIWSSMIAVGLTQRYS | inactive
SFKDCSVDSWFGSIIG | inactive
SFKMSVVAGVRTLGIFVWVF | inactive
SFKNNL | inactive
SFKTF | inactive
SFLRYNKSY | inactive
SFLWGFCRTKETGGSFMFNR | 0.264 ± 0.62
SFMLVFNDSAWLTSAHVYWA | inactive
SFPINGYMFSGYLERWCFTS | inactive
SFSDYEDMAQHLAPEAYNKC | inactive
SFSFVDLGIHYLMCNDSKIT | inactive
SFSFVQGSVPSTSFGSLKLA | inactive
SFSFVVPQARYFPTC | inactive
SFSKNVVDL | inactive
SFSLKPTDYIFIIVRSRRNP | inactive
SFYGHVHMDTCCN | inactive
